According to patent US20240301086A1 (APTEVO RESEARCH AND DEVELOPMENT, published 2024):
Like-named read-outs stand apart in the source and are kept apart here. One block for each binder: values may come before it.

What was measured:
[1] = molecular target: T1, human Fcγ receptor IIB/C (human, UniProt P31994 46-217); assay: SPR (Biacore T200), construct amine-coupled, Fcγ receptor titrated 375-6000 nM, 1:1 fit
T1 sequence (looked up): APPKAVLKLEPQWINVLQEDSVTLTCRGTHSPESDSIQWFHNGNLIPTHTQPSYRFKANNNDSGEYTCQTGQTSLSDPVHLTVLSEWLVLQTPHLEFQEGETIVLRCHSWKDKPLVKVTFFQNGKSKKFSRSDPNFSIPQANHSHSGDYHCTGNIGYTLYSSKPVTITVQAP
Description: (§1) The Fc region incorporated into anti-PSMA bispecific constructs contained mutations intended to reduce or abolish binding to common human and cynomolgus Fc gamma receptors. SPR experiments were conducted at 25° C. in HBS-EP+ with 0.2% BSA buffer on a Biacore T200 system to evaluate the impact of these mutations on binding. For these experiments, three flow cells of a CM5 sensor chip were immobilized with anti-PSMA bispecifics by standard amine coupling to a response level of ˜2000 RU. A blank immobilization was performed on flow cell #1 for purposes of background signal subtraction. Both human and cynomolgus monkey Fcγ receptors (purchased from R&D Systems) were diluted in HBS-EP+ with 0.2% BSA to 4-6 μM and then flowed as analytes at 30 μL/min for 120 seconds followed by a 240 second dissociation step. No regeneration step was required. Blank-subtracted sensorgrams were visually inspected for binding to each of the Fcγ receptor proteins. […] Attenuated binding to Fcγ receptors IIA (both polymorphic variants) and IIB/C was observed. PSMA01107 and PSMA01108 share the same Fc amino acid sequence and therefore equivalent Fcγ receptor binding behavior was expected.
(§2) TSC266 (PSMA×CD3 bispecific antibody) and another protein containing a wild-type IgG1 Fc sequence were also analyzed for comparison. Sensorgrams obtained from kinetic SPR measurements were analyzed by the double subtraction method in the Biacore T200 evaluation software. Kinetic parameters were derived from a one-to-one binding fit model and reported below in Table 8. Both TSC266 and PSMA01107 show reduced binding compared to a wild type IgG1 Fc.

[2] = molecular target: T2, human Fcγ receptor IIA, R167 variant (human, UniProt P12318 36-218); assay: as above
T2 construct: also called Type IIA R167
T2 sequence (looked up): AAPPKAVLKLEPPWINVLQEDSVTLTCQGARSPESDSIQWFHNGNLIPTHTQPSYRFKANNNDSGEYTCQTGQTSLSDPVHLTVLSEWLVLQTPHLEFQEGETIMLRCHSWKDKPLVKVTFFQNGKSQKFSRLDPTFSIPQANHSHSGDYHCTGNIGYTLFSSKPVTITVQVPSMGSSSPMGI
Description: as §1, §2

[3] = molecular target: T3, Human PSMA ECD-AFH (TSC033), recombinant dimeric PSMA ECD (human, UniProt Q04609 44-750); assay: SPR (Biacore), recombinant dimeric PSMA ECD
T3 construct: SEC-purified dimer; also called HuPSMA-AFH; Avi-His-Human PSMA ECD
T3 sequence (Q04609 other isoform, or with tags, fused parts or gaps): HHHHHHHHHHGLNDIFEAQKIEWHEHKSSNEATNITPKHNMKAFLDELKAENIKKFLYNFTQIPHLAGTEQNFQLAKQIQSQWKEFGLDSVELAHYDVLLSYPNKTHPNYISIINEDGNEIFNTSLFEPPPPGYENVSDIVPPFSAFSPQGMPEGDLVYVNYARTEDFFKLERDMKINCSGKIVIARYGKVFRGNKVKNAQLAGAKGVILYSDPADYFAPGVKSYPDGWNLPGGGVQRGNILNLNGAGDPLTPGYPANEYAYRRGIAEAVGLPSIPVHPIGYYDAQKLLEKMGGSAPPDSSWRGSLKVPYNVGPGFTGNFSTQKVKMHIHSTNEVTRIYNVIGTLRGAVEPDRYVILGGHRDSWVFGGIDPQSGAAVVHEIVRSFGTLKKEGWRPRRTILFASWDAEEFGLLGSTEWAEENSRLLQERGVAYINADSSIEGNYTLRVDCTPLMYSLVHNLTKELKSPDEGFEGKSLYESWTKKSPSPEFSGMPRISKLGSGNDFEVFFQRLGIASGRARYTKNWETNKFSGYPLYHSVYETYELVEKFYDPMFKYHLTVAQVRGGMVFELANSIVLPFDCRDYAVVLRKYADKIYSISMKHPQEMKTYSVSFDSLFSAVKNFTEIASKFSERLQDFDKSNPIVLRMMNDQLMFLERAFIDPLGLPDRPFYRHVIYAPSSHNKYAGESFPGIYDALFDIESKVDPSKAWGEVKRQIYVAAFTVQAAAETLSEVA
Description: (§3) Mouse anti-human IgG (GE, BR-1008-39) at 25 μg/ml in 10 mM sodium acetate pH 5.0 was immobilized at a density of ˜2,000-4,000 response units (RU) onto each flow cell of a CM5 research-grade sensor chip (GE) by standard amine coupling chemistry. Each anti-PSMA protein at approximately 40 nM in dPBS with 0.2% BSA buffer was captured in a flow cell with the immobilized anti-human IgG at a flow rate of […] for up to 30 seconds, leaving one flow cell surface unmodified as the reference. Using a multi-cycle kinetics mode, a buffer blank and […] different concentrations of ECD ranging from 1 nM to 243 nM were sequentially injected through each flow cell at 30 μL/min with association times varying from 300-600 seconds and dissociation times varying from 600-1200 seconds. Regeneration was achieved by injection of 3 M MgCl₂ at a flow rate of 30 μL/min for up to 40 seconds followed by dPBS with 0.2% BSA buffer stabilization for 1 min.
(§4) The KD was determined for a set of PSMA×CD3 bispecific proteins binding to recombinant dimeric PSMA ECD using SPR. In comparison to the constructs analyzed in Table 3, which all had the anti-PSMA scFv in the VL-VH orientation, the constructs in Table 11 have sequences with the reverse the order of the variable domains. The constructs below utilize the PSMA01023 anti-PSMA sequence as a basis.

[4] = molecular target: T3, Human PSMA ECD-AFH (TSC033), …; assay: SPR (Biacore), recombinant dimeric PSMA ECD; remark: listed apart in the source
Description: as §3, §4

[5] = molecular target: T4, recombinant human FcRn/b2M complex (human, UniProt P55899 24-297; P61769 21-119, limits assumed); assay: SPR at pH 6.0, hFcRn/b2M amine-coupled, construct 1-81 nM as analyte, two-state reaction model fit
T4 construct: also called hFcRn/b2M; neonatal Fc receptor
Description: Recombinant FcRn/b2M protein was generated via transient transfection of HEK-293 cells with a bi-cistronic vector containing the genes for both FcRn and […]. The complex was purified using IMAC chromatography and subsequently buffer exchanged into PBS buffer after verifying purity of the IMAC eluate by analytical SEC. Purified hFcRn/b2M at 5 μg/ml in 10 mM sodium acetate (pH 5.0) was immobilized on a CM5 chip by direct amine coupling chemistry to a level of ˜400 RU. A reference flow cell was left blank.
Different concentrations of the Fc variant protein (1-81 nM by 3-fold dilutions in HBS-EP+ with 0.2% BSA running buffer at pH 6.0) including running buffer as blank were injected in randomized order at 30 μL/min for 180 seconds followed by a 180 second dissociation period. Optimal regeneration was achieved by two injections of HBS-EP+ with 0.2% BSA at pH 7.5 at a flow rate of […] for 30 seconds followed by running buffer stabilization for 1 minute.
Sensorgrams obtained from kinetic SPR measurements were analyzed by the double subtraction method. […] Buffer reference was subtracted from analyte binding responses, and the final double-referenced data were analyzed with Biacore T200 Evaluation software (2.0, GE), globally fitting data to derive kinetic parameters. […]

Kd [1]: 6500 nM
Kd [2]: 5300 nM
Kd [3]: < 10 nM
Kd [4]: 3.4 nM
koff [4]: 8.5e-05 s⁻¹
kon [4]: 29000 M⁻¹ s⁻¹
Kd [5]: 47 nM
B1: PSMA01107 Anti-PSMA scFv x Fc x linker x Anti CD3 scFv; Anti PSMA scFv x Fc (bispecific antibody)
chain 1: QVQLVQSGAEVKKPGASVKVSCKASGYTFTDYYMHWVRQAPGQGLEWMGYFNPYNDYTRYAQKFQGRVTMTRDTSTSTVYMELSSLRSEDTAVYYCARSDGYYDAMDYWGQGTTVTVSSGGGGSGGGGSGGGGSGGGGSDIQMTQSPSSLSASVGDRVTITCRASKSISKYLAWYQQKPGKAPKLLIHSGSSLESGVPSRFSGSGSGTEFTLTISSLQPDDFATYYCQQHIEYPWTFGQGTKVEIKEPKSSDKTHTCPPCPAPPAAAPSVFLFPPKPKDTLMISRTPEVTCVVVDVSHEDPEVKFNWYVDGVEVHNAKTKPREEQYNSTYRVVSVLTVLHQDWLNGKEYKCAVSNKALPAPIEKTISKAKGQPREPQVYTLPPSRDELTKNQVSLWCLVKGFYPSDIAVEWESNGQPENNYKTTPPVLDSDGSFFLYSKLTVDKSRWQQGNVFSCSVMHEALHNHYTQKSLSLSPGGGGSPSQVQLVQSGAEVKKPGASVKVSCKASGYTFTRSTMHWVRQAPGQGLEWIGYINPSSAYTNYAQKFQGRVTLTADKSTSTAYMELSSLRSEDTAVYYCASPQVHYDYNGFPYWGQGTLVTVSSGGGGSGGGGSGGGGSGGGGSDIQMTQSPSSLSASVGDRVTITCRASSSVSYMNWYQQKPGKAPKRWIYDSSKLASGVPSRFSGSGSGTDFTLTISSLQPEDFATYYCQQWSRNPPTFGQGTKVEIKRS
chain 2: QVQLVQSGAEVKKPGASVKVSCKASGYTFTDYYMHWVRQAPGQGLEWMGYFNPYNDYTRYAQKFQGRVTMTRDTSTSTVYMELSSLRSEDTAVYYCARSDGYYDAMDYWGQGTTVTVSSGGGGSGGGGSGGGGSGGGGSDIQMTQSPSSLSASVGDRVTITCRASKSISKYLAWYQQKPGKAPKLLIHSGSSLESGVPSRFSGSGSGTEFTLTISSLQPDDFATYYCQQHIEYPWTFGQGTKVEIKEPKSSDKTHTCPPCPAPPAAAPSVFLFPPKPKDTLMISRTPEVTCVVVDVSHEDPEVKFNWYVDGVEVHNAKTKPREEQYNSTYRVVSVLTVLHQDWLNGKEYKCAVSNKALPAPIEKTISKAKGQPREPQVYTLPPSRDELTKNQVSLSCAVKGFYPSDIAVEWESNGQPENNYKTTPPVLDSDGSFFLVSKLTVDKSRWQQGNVFSCSVMHEALHNHYTQKSLSLSPG
notes: Heterodimer, bivalent for PSMA and monovalent for CD3 (VH-VL scFv at the C-terminus); also called PSMA1107

Kd [3]: < 10 nM
Kd [4]: 3.1 nM
koff [4]: 9e-05 s⁻¹
kon [4]: 29000 M⁻¹ s⁻¹
Kd [5]: 19 nM
B2: PSMA01108 Anti-PSMA scFv x Fc x linker x Anti CD3 scFv; Anti PSMA scFv x Fc (bispecific antibody)
chain 1: QVQLVQSGAEVKKPGASVKVSCKASGYTFTDYYMHWVRQAPGQGLEWMGYFNPYNDYTRYAQKFQGRVTMTRDTSTSTVYMELSSLRSEDTAVYYCARSDGYYDAMDYWGQGTTVTVSSGGGGSGGGGSGGGGSGGGGSDIQMTQSPSSLSASVGDRVTITCRASKSISKYLAWYQQKPGKAPKLLIHSGSSLESGVPSRFSGSGSGTEFTLTISSLQPDDFATYYCQQHIEYPWTFGQGTKVEIKEPKSSDKTHTCPPCPAPPAAAPSVFLFPPKPKDTLMISRTPEVTCVVVDVSHEDPEVKFNWYVDGVEVHNAKTKPREEQYNSTYRVVSVLTVLHQDWLNGKEYKCAVSNKALPAPIEKTISKAKGQPREPQVYTLPPSRDELTKNQVSLWCLVKGFYPSDIAVEWESNGQPENNYKTTPPVLDSDGSFFLYSKLTVDKSRWQQGNVFSCSVMHEALHNHYTQKSLSLSPGGGGSPSDIQMTQSPSSLSASVGDRVTITCRASSSVSYMNWYQQKPGKAPKRWIYDSSKLASGVPSRFSGSGSGTDFTLTISSLQPEDFATYYCQQWSRNPPTFGQGTKVEIKGGGGSGGGGSGGGGSGGGGSQVQLVQSGAEVKKPGASVKVSCKASGYTFTRSTMHWVRQAPGQGLEWIGYINPSSAYTNYAQKFQGRVTLTADKSTSTAYMELSSLRSEDTAVYYCASPQVHYDYNGFPYWGQGTLVTVSS
chain 2: B1 chain 2
notes: also called PSMA1108; PSAM01108

Kd [1]: 2700 nM
Kd [2]: 1500 nM
B3: TSC266 Anti PSMA scFv x Anti CD3 scFv ADAPTIR (bispecific antibody)
chain: DIQMTQSPSAMSASVGDRVTITCRASKSISKYLAWFQQKPGKVPKLRIHSGSTLQSGVPSRFSGSGSGTEFTLTISSLQPEDFATYYCQQHIEYPWTFGQGTKVEIKRGGGGSGGGGSGGGGSQVQLVQSGAEVKKPGASVKVSCKASGYTFTDYYMHWVRQAPGQGLEWMGYFNPYNDYTRYAQKFQGRVTMTRDTSISTAYMELSSLRSDDTAVYYCARSDGYYDAMDYWGQGTTVTVSSSEPKSSDKTHTCPPCPAPEAAGAPSVFLFPPKPKDTLMISRTPEVTCVVVDVSHEDPEVKFNWYVDGVEVHNAKTKPREEQYNSTYRVVSVLTVLHQDWLNGKAYACAVSNKALPAPIEKTISKAKGQPREPQVYTLPPSRDELTKNQVSLTCLVKGFYPSDIAVEWESNGQPENNYKTTPPVLDSDGSFFLYSKLTVDKSRWQQGNVFSCSVMHEALHNHYTQKSLSLSPGQRHNNSSLNTGTQMAGHSPNSQVQLVESGGGVVQPGRSLRLSCKASGYTFTRSTMHWVRQAPGQGLEWIGYINPSSAYTNYNQKFKDRFTISADKSKSTAFLQMDSLRPEDTGVYFCARPQVHYDYNGFPYWGQGTPVTVSSGGGGSGGGGSGGGGSAQDIQMTQSPSSLSASVGDRVTMTCSASSSVSYMNWYQQKPGKAPKRWIYDSSKLASGVPARFSGSGSGTDYTLTISSLQPEDFATYYCQQWSRNPPTFGGGTKLQITSSS
notes: The anti-PSMA domain is that of PSMA01012 and the anti-CD3 domain is DRA222; also called unoptimized parent construct; TSC266 control (PSMA × CD3 bispecific protein)
